# Reference: the domain aggregation screens of Martell et al. (2025)
# Assay: soluble fraction after stress (log2 fold change); higher = more stays soluble; pooled small domains, quantitative proteomics
# Conditions: stress: 75 degC
# 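Note: 20 min heating vs room temperature control held 20 min.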
row,Sequence,soluble fraction (log2)
1,HMNTTLQLDTILRLEKNAHLLENFVRAGFTDSELGKLTDADLLQIGVPKIGDRRRLLAALAERAH,-0.904
2,HMAMESDELETLVDQLIVDHPDEWSRFVGGDDGDRKKMQGFFTGQIMKATKGQADGRAVAQLLGQKSA,0.0717
3,HMRQEIIEDSRKLLEESLKRYDLTYQEFIDTLKSKNMNVESTLINIIKNQSSLDLVLRNLGLIAP,-0.0293
4,HMQISLAAARVNAGLTQEEVAKAMKVGKQTIVSWEKGNSEPKMSQSRELSELYKIPLDYIFYP,-0.5
5,HMDDTRLELTLLGKIHNDEEINKQSHINVNIKNGVILLTGESPRREITERILTLARTFEHTRQIVNQIAT,0.0479
6,HMAPRIVTIQIPVDKIRDVIGPGGKVIRSIIERTGVKIDVEDDGRVNVASADGDSAQRAIAIIQELTAT,-0.101
7,HMDHKSALQELLAPRGLQPSYRLVEEAGPAHARVFTSEVSVDGVARGSGTGTTIKMSEQAAAREALASLG,0.249
8,HMDGYTAVDKAVSDQYYTKENQLYFVSMGNFFSLGAKKIEGADISSFQILTTEYARDLQHLYFNGKV,-0.224
9,HMLQSGSDYLIEQVRMYTATGQREYMDNYFEELNTTRRRENALEYFAEHYGDNDAFTLLKSAMTTSQN,-0.258
10,HMTSSQRDSILEFLKTRKDHPTADVVYMNVRKSFPNISLGTVYRNLTLLSDIGQIAKIRVGDGVDHFDADT,-0.505
11,HMEEPLIISIDSNGAVYLEVDSFKDQSIEMSSLREIIEKIILANPDIQVVVRGDSEVKYEKVMDLMSILQS,-1.58
12,HMNVEALIGREGRVTDKIEANGYGRVKVDGDSWKAKSANGAEIRQNTDVRILSIDSVIITVEP,-0.766
13,HMYSYSFTSSEGSTFEGQLIRVEESQVTILRYADQKEFSIPKSRFIEADQVYFERWAIENPQL,-4.18
14,HMTQEQKQQISDQLRAYVEQKGSGNKAAASMNGVSSATISKVLAGKWETISEDMWRSIAAQTGH,0.325
15,HMNPEDLSGVRKAAILLLTMDDEVTKDVMKGLDEEEIEAIGKEITNLKLIPDHVVHRVQEEFMTKVSK,0.107
16,HMERFMEFVITDTQQGQRLDVVLTETTEHLGSRSHMQRSIRAGLVSIDGITTTRASTKVSSGQIIRVEPT,-1.42

row,Sequence,soluble fraction (log2)
1,HMAMYSREKLKKLREDRGLTQYELAKIAGISVVTLNKIESSDSAKPFVKTLNKIAQALGVGIDELS,-1.77
2,HMAPVVELEDVTIVRGKATLLDRVNWVIDETDRWVIVGPNGAGKTTLLQVVSANLHPTSGKAMILDEVL,0.176
3,HMPKHFIDFSEGEVVSITDGPFKGFDGAISEIDNQKGKVKVMVSMFGRDTSVELDALQVKKV,0.00647
4,HMTVMTGSQRRKKILELMRDAKEPLSGGALGKETGVSRHVVVQDIALLRTQGYPIVATARGYIINE,-1.32
5,HMTTRLLTPRQRQVFDIAIREGFYDSPRRISLTELADLLGVAKSTLSVQLQRVESTIVHTFSEEIRRRS,-2.66
6,HMGADRLVGMTAIVTATIDPNDTDRKGRVQVEGEVWSALSDGRLIITEGSKVRITEMHGTRVRVEAI,-0.685
7,HMQPIAVHIGTENPMKSLSDLSVVRAQFTSGGRVIGSVAVLGPTRMQYSRIVGMMRFMQQRLDLLLKG,-0.0629
8,HMFLTDHEVSKVARKRAHAEYLSSLSWRQRTFGDHGERSKNFEAWYKEHSHLYETEKLYKELYKN,-1.03
9,HMGGLIEPLSARELEVLELMSLGKTNQEIARDLVVASGTIKAHAASIYRKLDAANRTEAVTHARELGIL,0.471
10,HMSLDLNENEKTIFDIIQNKKTIRLSELKIEAGLSNKGWDKAMKSLTKQGLAKVVKTEDQLTVKLL,-0.499
11,HMSQEILSNQSIKDMIELGFEEQTIIDKIQTSTSDFDTTIEELKALKQLGASPTILSAMIKSIKK,1.01
12,HMARTTIATPWDKINDLLQGGLGNGDFGLIFGNPGGGKSWSLVALGGFAVKLGYNVIHYTLE,-0.0148
13,HMNDRRQDVFELLKSSERPVSAADLAHKFGVTRQVIVADIALLRASDIDIVSTNRGYILKANL,-1.83
14,HMNVVGAKGRIIKISSSEEKMAVAEIEGHGEWNIRTNSEIELFVGKSVEVIEMKGNYLLVNQI,-3.01
15,HMNDPIGDMLTRIRNAQMRGKSTVSTPASKLRAWVLEVLASEGYIRGFERATTDNGQGELVISLD,-0.682
